Results as given in the supplement of paper PMC12855868.

B1: library; numbered along this chain (parent)
chain: MAAAGGARLLRAASAVLGGPAGRWLHHAGSRAGSSGLLRNRGPGGSAEASRSLSVSARARSSSEDKITVHFINRDGETLTTKGKVGDSLLDVVVENNLDIDGFGACEGTLACSTCHLIFEDHIYEKLDAITDEENDMLDLAYGLTDRSRLGCQICLTKSMDNMTVRVPETVADARQSIDVGKTS

Variants of: B1
Assay: scaled log2 fold change in cell abundance, elesclomol vs control (0 = silent mean, 1 = nonsense mean) (scaled log2 ratio); higher = higher viability under elesclomol (loss of FDX1 cuproptosis function)
Details: glucose 10 mM
[1] = with ABC1 FDX1 KO, elesclomol 5 nM, 14 days
[2] = with HEK293T FDX1 KO, elesclomol 40 nM, 11 days
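Further: variant abundance is its share of total variant reads in each endpoint sample, from next-generation sequencing of the integrated ORF PCR-amplified out of genomic DNA.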

Variant | scaled log2 fold change [1] | scaled log2 fold change [2]
G181E | -0.223 | -0.4
G181F | 0.316 | 0.167
G181N | 0.125 | –
T114F | 0.685 | 0.235
T114E | 0.811 | 1.09
T114D | 0.795 | 0.798
K126I | -0.0257 | -0.476
T170I | -0.092 | 0.126
T78M | -0.54 | -0.0932
T78I | -0.229 | –
D101N | -0.201 | -0.0138
D101F | -0.332 | 0.0209
D101P | -0.357 | -0.96
I154R | 1.01 | 0.787
I154D | 1.18 | 1.22
I154V | -0.0239 | -1.6
D91M | -0.119 | -1.37
D91V | -0.017 | 0.747
L10Q | 0.168 | 0.352
L10R | 0.663 | –

Variant | scaled log2 fold change [1] | scaled log2 fold change [2]
R8Y | 0.407 | 0.189
V94I | -0.52 | 0.00216
M137R | -0.477 | -0.0264
M137K | -0.121 | 1.33
T131A | -0.777 | 0.0649
G83P | 0.126 | -0.345
F103S | 0.912 | 0.923
G22R | -0.188 | –
G22C | -0.919 | –
A12H | 0.526 | 0.197
A12I | 0.306 | -0.67
C115A | 1.07 | 1.02
C115I | 1.04 | 0.907
P43I | 0.392 | -0.356
L98Q | 0.167 | -0.327
I118Y | 0.0377 | -0.427
E95F | -0.339 | -0.0798
E95W | 0.0294 | -0.33
K158S | 0.23 | -0.645
K158E | -0.265 | 0.159

Variant | scaled log2 fold change [1] | scaled log2 fold change [2]
K158I | -0.0888 | -0.515
D99S | -0.273 | -0.316
D99V | 0.0908 | -1.19
G151D | 1.22 | 1.19
D179E | -0.000144 | 0.0611
I130Q | 0.0588 | -0.458
I130K | -0.203 | 0.0187
I130E | -0.051 | -0.419
I130N | -0.0924 | 0.234
V93D | 0.877 | 0.496
V93T | -0.217 | -0.372
V93A | -0.15 | 1.27
A2D | 0.173 | 0.487
A2T | 0.0597 | -0.252
A2E | -0.26 | 0.752
R149P | 1.05 | 0.985
V69F | -0.809 | -0.24
E77D | -0.61 | -0.9
E77S | -0.974 | 0.00555
